{"source": "patent US20210054078A1", "about": "(PHARMABCINE, published 2021)", "binders": {"B1": {"name": "ME4 anti-PD-L1 antibody (IgG form) (antibody, V domains shown)", "VH": "QVQLVESGAEVKKPGSSVKVSCKASGGTFNNYAVSWVRQAPGQGLEWMGRIIPILGIANYAQTFQGRVTITADKSTTTAYMELSSLRSEDTAVYYCARSYSGYAEGAFDIWGQGTMVTVSS", "VL": "QFVLTQPPSVSGAPGQRVTISCTGSSSNIGAGYDVHWYQQLPGTAPKVLIYGNSDRPSGVPDRFSGSKSGTSASLAITGLQGEDKATYYCQSYDSRLSGPVFGTGTKVTVLG", "notes": "Converted to IgG with the vectors pIgGHD-6A6Hvy and pIgGLD-6A6Lgt; Expressed in Expi293F cells"}, "B2": {"name": "ME4.B12 anti-PD-L1 antibody (IgG form) (antibody, V domains shown)", "VH": "B1 VH with Y100S, S101F, A104S, E105V", "VL": "B1 VL"}, "B3": {"name": "ME4.A11 anti-PD-L1 antibody (IgG form) (antibody, V domains shown)", "VH": "B1 VH with Y100R, S101G, E105H", "VL": "B1 VL"}, "B4": {"name": "ME4.B10 anti-PD-L1 antibody (IgG form) (antibody, V domains shown)", "VH": "B1 VH with Y100A, S101R, E105H", "VL": "B1 VL"}, "B5": {"name": "ME4.A12 anti-PD-L1 antibody (IgG form) (antibody, V domains shown)", "VH": "B1 VH with Y100H, S101W, E105H", "VL": "B1 VL"}, "B6": {"name": "ME4.A2 anti-PD-L1 antibody (IgG form) (antibody, V domains shown)", "VH": "B1 VH with Y100S, S101R, E105H", "VL": "B1 VL"}, "B7": {"name": "1G1 anti-PD-L1 antibody (IgG form) (antibody, V domains shown)", "VH": "QVQLVESGGGLVQPGRSLRLSCAASGFTFDDYAMHWVRQAPGKGLEWVSGISWNSGSIGYADSVKGRFTISRDNAKNSLYLQMNSLRAEDTAVYYCAKPRDISSWLGMDVWGQGTTVTVSS", "VL": "DIQMTQSPSSVSASVGDRVTITCRASQDISSWLAWYQQKPGKAPKLLIYAASSLQSGVPSRFSGSGSGTDFTLTISSLQPEDSATYYCQQTNNFPYTFGQGTKLEIKR", "notes": "Converted to IgG with the vectors pIgGHD-6A6Hvy and pIgGLD-6A6Lgt; Expressed in Expi293F cells; also called IG1"}}, "note": "Changes are numbered by the printed parent chain."}
{"target": "T1, mouse PD-L1 on mPD-L1/CHO-K1 overexpressing cells (mouse, UniProt Q9EP73 19-290)", "T1 construct": "whole, on cells; also called mouse PD-L1-expressing cells", "T1 sequence (Q9EP73 19-290)": "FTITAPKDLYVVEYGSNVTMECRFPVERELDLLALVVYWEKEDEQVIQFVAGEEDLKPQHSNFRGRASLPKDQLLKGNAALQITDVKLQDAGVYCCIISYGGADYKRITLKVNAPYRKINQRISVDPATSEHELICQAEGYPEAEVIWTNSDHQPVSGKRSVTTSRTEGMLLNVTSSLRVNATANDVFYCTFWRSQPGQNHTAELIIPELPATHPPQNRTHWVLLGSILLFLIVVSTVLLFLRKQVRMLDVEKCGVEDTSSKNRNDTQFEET", "assay": "flow cytometry on mPD-L1/CHO-K1 cells (sheet label mPD-1/CHO-K1)", "description": "(§1) For flow cytometry, overexpressing cell lines (hPD-L1/CHO-K1, mPD-L1/CHO-K1), established by introducing human and. mouse PD-L1 genes into CHO-K1 cells, were used. Each cell was maintained and cultured, washed with PBS, suspended in 5 mM EDTA and then recovered through centrifugation. A cell suspension (5×10⁶ cells/ml) was prepared using a FACS-exclusive buffer (containing 2% FBS and PBS 0.05% sodium azide), and was seeded at 100 μl/tube. […] of a test antibody was added at 100 μl to each test tube and then allowed to stand at 4° C. for 30 minutes to induce antibody-cell binding. […] After washing with 2 ml of FACS buffer, 200 μl of FACS buffer was added to suspend the cells. As a positive control group, fluorescence labeling was conducted using FITC-conjugated anti-human PD-L1 antibody (#558065, BD Biosciences) and PE-conjugated anti-mouse […] (#558091, BD Biosciences).\n(§2) The cell-binding ability of the optimized anti-PD-L1 antibody was measured through flow cytometry. The experiment was performed in the same manner as in Example 6. […] In order to evaluate binding force, binding kinetics were analyzed using Octet and the binding constant was calculated (Table 7).", "units": {"% Gated in M1": "%"}}
{"binder": "B1", "% Gated in M1": 28.8, "Geo Mean in M1": 20, "Geo Mean, all events": 10.4, "Mean in M1": 20.6, "Mean, all events": 12.3}
{"binder": "B2", "% Gated in M1": 27.2, "Geo Mean in M1": 16.1, "Geo Mean, all events": 7.13, "Mean in M1": 16.6, "Mean, all events": 9.1}
{"binder": "B3", "% Gated in M1": 9.44, "Geo Mean in M1": 14.2, "Geo Mean, all events": 5.55, "Mean in M1": 14.5, "Mean, all events": 6.63}
{"binder": "B4", "% Gated in M1": 18.1, "Geo Mean in M1": 15, "Geo Mean, all events": 6.41, "Mean in M1": 15.4, "Mean, all events": 7.85}
{"binder": "B5", "% Gated in M1": 7.31, "Geo Mean in M1": 14.2, "Geo Mean, all events": 5.39, "Mean in M1": 14.4, "Mean, all events": 6.38}
{"binder": "B6", "% Gated in M1": 51, "Geo Mean in M1": 19.1, "Geo Mean, all events": 10.8, "Mean in M1": 20.3, "Mean, all events": 13.8}
{"target": "T2, human PD-L1 (soluble protein of the kinetic measurements) (human, UniProt Q9NZQ7 19-238, limits assumed)", "T2 construct": "kept apart from the His-tag protein of the ELISA; also called hPD-L1", "T2 sequence (Q9NZQ7 19-238 limits assumed)": "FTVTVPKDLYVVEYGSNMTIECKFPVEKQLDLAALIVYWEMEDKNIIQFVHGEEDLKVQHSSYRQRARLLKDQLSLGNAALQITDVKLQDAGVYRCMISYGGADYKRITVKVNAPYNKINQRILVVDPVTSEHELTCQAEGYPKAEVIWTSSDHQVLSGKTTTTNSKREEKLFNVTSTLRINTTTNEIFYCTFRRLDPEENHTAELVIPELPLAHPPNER", "assay": "BLI (Octet), antibody fixed on biosensor, PD-L1 in solution", "description": "(§3) The binding ability of the selected anti-PD-L1 antibody to human or mouse PD-L1 was measured using the Octet system (Fortebio Inc. US). For this purpose, an anti-PD-L1 antibody was fixed on a biosensor, and binding kinetics at each concentration of human or mouse PD-L1 were measured to calculate a binding rate constant (kₐ), a dissociation rate constant (kdis) and a binding constant (KD) (Table 3).", "units": {"Kd": "nM", "koff": "s⁻¹", "kon": "M⁻¹ s⁻¹"}}
{"binder": "B7", "Kd": 0.629, "koff": 0.000146, "kon": 232000}
{"binder": "B1", "Kd": 1.72, "koff": 0.000324, "kon": 188000}
{"target": "T3, mouse PD-L1 (soluble protein of the kinetic measurements) (mouse, UniProt Q9EP73 19-238, limits assumed)", "T3 construct": "kept apart from the His-tag protein of the ELISA; also called mPD-L1", "T3 sequence (Q9EP73 19-238 limits assumed)": "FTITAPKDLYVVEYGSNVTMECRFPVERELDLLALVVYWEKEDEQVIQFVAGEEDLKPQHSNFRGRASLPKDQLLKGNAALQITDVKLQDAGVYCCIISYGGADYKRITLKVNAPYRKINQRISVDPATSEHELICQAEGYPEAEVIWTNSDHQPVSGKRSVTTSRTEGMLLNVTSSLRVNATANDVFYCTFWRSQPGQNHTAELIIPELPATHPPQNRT", "assay": "BLI (Octet), antibody fixed on biosensor, PD-L1 in solution", "description": "as §3", "units": {"Kd": "nM", "koff": "s⁻¹", "kon": "M⁻¹ s⁻¹"}}
{"binder": "B1", "Kd": 37.4, "koff": 0.00211, "kon": 56300}
{"target": "T4, Mouse PD-L1-HisTag (#50010-M08H, Sino Biological Inc.) (mouse, UniProt Q9EP73 19-238)", "T4 construct": "Bought protein coated on the ELISA plate; also called mPD-L1; His-tag mouse PD-L1 protein; not shown: His tag", "T4 sequence (Q9EP73 19-238 limits assumed, stated change not applied)": "as the sequence (Q9EP73 19-238 limits assumed) above", "assay": "ELISA on coated His-tag mouse PD-L1, OD450-630"}
{"binder": "B7", "binding result": "no binding"}
{"target": "T2, human PD-L1 (soluble protein of the …)", "assay": "BLI (Octet), antibody fixed on biosensor, PD-L1 in solution", "remark": "another data set of the same source", "description": "as §3, §2", "units": {"koff": "s⁻¹", "kon": "M⁻¹ s⁻¹", "Kd": "nM"}}
{"binder": "B1", "koff": 0.000324, "kon": 188000}
{"binder": "B2", "Kd": 0.0194, "koff": "3.19e-06", "kon": 164000}
{"binder": "B3", "Kd": 0.918, "koff": 0.000109, "kon": 118000}
{"binder": "B4", "Kd": 0.167, "koff": "~2.42e-05", "kon": 145000}
{"binder": "B5", "Kd": 0.134, "koff": "2.2e-05", "kon": 165000}
{"binder": "B6", "Kd": 0.0586, "koff": "1.02e-05", "kon": 174000}
{"target": "T3, mouse PD-L1 (soluble protein of the …)", "assay": "BLI (Octet), antibody fixed on biosensor, PD-L1 in solution", "remark": "another data set of the same source", "description": "as §3, §2", "units": {"Kd": "nM", "koff": "s⁻¹", "kon": "M⁻¹ s⁻¹"}}
{"binder": "B1", "Kd": 37.4, "koff": 0.00211, "kon": 56300}
{"binder": "B2", "Kd": 1.22, "koff": 0.000379, "kon": 310000}
{"binder": "B3", "Kd": 4.86, "koff": 0.000626, "kon": 129000}
{"binder": "B4", "Kd": 1.62, "koff": 0.000422, "kon": 260000}
{"binder": "B5", "Kd": 2.65, "koff": 0.000817, "kon": 308000}
{"binder": "B6", "Kd": 3.01, "koff": 0.000986, "kon": 328000}
{"target": "T1, mouse PD-L1 on mPD-L1/CHO-K1 …", "assay": "flow cytometry, purified IgG on mPD-L1/CHO-K1 cells, PE anti-human IgG-Fc", "description": "as §1"}
{"binder": "B7", "binding result": "no binding"}
{"target": "T5, human PD-L1 on hPD-L1/CHO-K1 overexpressing cells (human, UniProt Q9NZQ7 19-290)", "T5 construct": "whole, on cells; also called human PD-L1-expressing cells", "T5 sequence (Q9NZQ7 19-290)": "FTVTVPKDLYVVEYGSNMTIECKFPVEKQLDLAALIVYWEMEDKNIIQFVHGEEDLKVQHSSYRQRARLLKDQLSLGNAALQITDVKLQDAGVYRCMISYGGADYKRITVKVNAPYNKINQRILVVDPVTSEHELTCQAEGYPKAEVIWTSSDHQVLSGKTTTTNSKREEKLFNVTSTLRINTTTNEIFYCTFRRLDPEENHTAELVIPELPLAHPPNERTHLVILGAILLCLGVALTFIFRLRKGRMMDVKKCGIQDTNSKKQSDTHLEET", "assay": "flow cytometry on hPD-L1/CHO-K1 cells (sheet label hPD-1/CHO-K1)", "description": "as §1, §2", "units": {"% Gated in M1": "%"}}
{"binder": "B1", "% Gated in M1": 83.2, "Geo Mean in M1": 34.4, "Geo Mean, all events": 27.8, "Mean in M1": 38.3, "Mean, all events": 33.6}
{"binder": "B2", "% Gated in M1": 81.6, "Geo Mean in M1": 29.2, "Geo Mean, all events": 22.5, "Mean in M1": 33.8, "Mean, all events": 28.9}
{"binder": "B3", "% Gated in M1": 52.6, "Geo Mean in M1": 19.4, "Geo Mean, all events": 12.1, "Mean in M1": 21, "Mean, all events": 14.7}
{"binder": "B4", "% Gated in M1": 50.3, "Geo Mean in M1": 19.4, "Geo Mean, all events": 11.5, "Mean in M1": 21, "Mean, all events": 14.2}
{"binder": "B5", "% Gated in M1": 44.6, "Geo Mean in M1": 18.4, "Geo Mean, all events": 10.6, "Mean in M1": 19.7, "Mean, all events": 12.9}
{"binder": "B6", "% Gated in M1": 72.4, "Geo Mean in M1": 29.1, "Geo Mean, all events": 20.7, "Mean in M1": 33, "Mean, all events": 26.4}
